Measured values: patent US20260194525A1

What was measured:
[1] = biological target: commercially available recombinant antigen CEACAM1 (R&D Systems) (UniProt P13688); test: ELISA on CEACAM1 coated in PBS; antibody 0.1 ug/mL with against without 10 ug/mL competitor polyclonal AF2244
[2] = biological target: CEACAM1 in a cancer specimen having a high value of CEACAM1 (human) (UniProt P13688); test: CLEIA sandwich without denaturation: 283324 on magnetic particles, biotin-labeled BAF2244 as detector; competitor AF2244 30 ug/mL added to a cancer specimen (FIG. 12)

binding rate by addition of anti-CEACAM1 polyclonal antibody [1] | quantitative value with the polyclonal antibody added (+) against not added (-) [2] | Substance
41% | 3% | anti-CEACAM1 antibody 283324 (R&D Systems)
44.8% |  | biotin-labeled anti-CEACAM1 antibody BAF2244 (R&D Systems)
